# Reference: US20220211857A1, “POLYPEPTIDE DERIVATIVE AND PREPARATION METHOD THEREOF” (NINGBO KUNPENG BIOTECH CO., LTD., priority 2019, published 2022)
# Where a SMILES comes first, the peptide text is derived from it. The star is where a group is joined. X5 = O=C(O)CCCCCCCCCCCCCCC(=O)NC(CCC(=O)NCCOCCOCCOCCn1cc(CCOC(=O)*)nn1)C(=O)O; X4 = O=C(O)CCCCCCCCCCCCCCC(=O)NC(CCC(=O)NCCOCCOCCn1cc(CCOC(=O)*)nn1)C(=O)O; X2 = O=C(O)CCCCCCCCCCCCCCC(=O)NC(CCC(=O)NCCn1cc(CCOC(=O)*)nn1)C(=O)O
# Columns and labels:
# [1] = Pharmacokinetics studies of GLP-1 derivatives in rats (single subcutaneous injection, LC-MS/MS, NCA); settings: rat; for half-lives (in words): experiment of Example 8 repeated in the same way
# Description: The experiment comprised a reference substance group and a test substance group. GLP-1 and L6-GFA16-GLP-1 were injected subcutaneously with a single administration of 0.5 mg/kg, respectively. Animals in each group were collected blood at 15 min, 30 min, 1 h, 2 h, 3 h, 5 h, 7 h, 12 h, and 24 h after administration. LC-MS/MS analysis method was used to detect contents of different GLP-1 analogues.
# [2] = Pharmacokinetics studies of PTH-1 derivatives in rats (single subcutaneous injection, LC-MS/MS, NCA); format: in vivo; settings: rat, experiment of Example 10 repeated in the same way
# Description: PTH-1 and L6-GFA16-PTH-1 were injected subcutaneously with a single administration of 8.6 μg/kg, respectively. Animals in each group were collected blood at 0 min, 5 min, 15 min, 30 min, 1 h, 2 h, and 4 h after administration. […] Exposure time of drugs in vivo was prolonged and exposure doses were increased.
SMILES,half-lives (in words) [1],half-lives (in words) [2],other results
CC[C@H](C)[C@H](NC(=O)[C@H](Cc1ccccc1)NC(=O)[C@H](CCC(=O)O)NC(=O)[C@H](CCCCNC(=O)OCCc1cn(CCNC(=O)CCC(NC(=O)CCCCCCCCCCCCCCC(=O)O)C(=O)O)nn1)NC(=O)[C@H](C)NC(=O)[C@H](C)NC(=O)[C@H](CCC(N)=O)NC(=O)CNC(=O)[C@H](CCC(=O)O)NC(=O)[C@H](CC(C)C)NC(=O)[C@H](Cc1ccc(O)cc1)NC(=O)[C@H](CO)NC(=O)[C@H](CO)NC(=O)[C@@H](NC(=O)[C@H](CC(=O)O)NC(=O)[C@H](CO)NC(=O)[C@@H](NC(=O)[C@H](Cc1ccccc1)NC(=O)[C@@H](NC(=O)CNC(=O)[C@H](CCC(=O)O)NC(=O)[C@H](C)NC(=O)[C@@H](N)Cc1c[nH]cn1)[C@@H](C)O)[C@@H](C)O)C(C)C)C(=O)N[C@@H](C)C(=O)N[C@@H](Cc1c[nH]c2ccccc12)C(=O)N[C@@H](CC(C)C)C(=O)N[C@H](C(=O)N[C@@H](CCCCN)C(=O)NCC(=O)N[C@@H](CCCNC(=N)N)C(=O)NCC(=O)O)C(C)C (stereo partly drawn) [L0-GFA16-GLP-1],significantly prolonged,,
CC[C@H](C)[C@H](NC(=O)[C@H](CCC(=O)O)NC(=O)[C@H](CO)NC(=O)[C@@H](NC(=O)[C@@H](N)CO)C(C)C)C(=O)N[C@@H](CCC(N)=O)C(=O)N[C@@H](CC(C)C)C(=O)N[C@@H](CCSC)C(=O)N[C@@H](Cc1c[nH]cn1)C(=O)N[C@@H](CC(N)=O)C(=O)N[C@@H](CC(C)C)C(=O)NCC(=O)N[C@@H](CCCNC(=N)N)C(=O)N[C@@H](Cc1c[nH]cn1)C(=O)N[C@@H](CC(C)C)C(=O)N[C@@H](CC(N)=O)C(=O)N[C@@H](CO)C(=O)N[C@@H](CCSC)C(=O)N[C@@H](CCC(=O)O)C(=O)N[C@@H](CCCNC(=N)N)C(=O)N[C@H](C(=O)N[C@@H](CCC(=O)O)C(=O)N[C@@H](Cc1c[nH]c2ccccc12)C(=O)N[C@@H](CC(C)C)C(=O)N[C@@H](CCCNC(=N)N)C(=O)N[C@@H](CCCCNC(=O)OCCc1cn(CCNC(=O)CCC(NC(=O)CCCCCCCCCCCCCCC(=O)O)C(=O)O)nn1)C(=O)N[C@@H](CCCNC(=N)N)C(=O)N[C@@H](CC(C)C)C(=O)N[C@@H](CCC(N)=O)C(=O)N[C@@H](CC(=O)O)C(=O)N[C@H](C(=O)N[C@@H](Cc1c[nH]cn1)C(=O)N[C@@H](CC(N)=O)C(=O)N[C@@H](Cc1ccccc1)C(=O)O)C(C)C)C(C)C (stereo partly drawn) [L0-GFA16-PTH] (H-SVSEIQLMHNLGRHLNSMERVEWLRK(X2)RLQDVHNF-OH),,significantly prolonged,
CC[C@H](C)[C@H](NC(=O)[C@H](Cc1ccccc1)NC(=O)[C@H](CCC(=O)O)NC(=O)[C@H](CCCCNC(=O)OCCc1cn(CCOCCOCCNC(=O)CCC(NC(=O)CCCCCCCCCCCCCCC(=O)O)C(=O)O)nn1)NC(=O)[C@H](C)NC(=O)[C@H](C)NC(=O)[C@H](CCC(N)=O)NC(=O)CNC(=O)[C@H](CCC(=O)O)NC(=O)[C@H](CC(C)C)NC(=O)[C@H](Cc1ccc(O)cc1)NC(=O)[C@H](CO)NC(=O)[C@H](CO)NC(=O)[C@@H](NC(=O)[C@H](CC(=O)O)NC(=O)[C@H](CO)NC(=O)[C@@H](NC(=O)[C@H](Cc1ccccc1)NC(=O)[C@@H](NC(=O)CNC(=O)[C@H](CCC(=O)O)NC(=O)[C@H](C)NC(=O)[C@@H](N)Cc1c[nH]cn1)[C@@H](C)O)[C@@H](C)O)C(C)C)C(=O)N[C@@H](C)C(=O)N[C@@H](Cc1c[nH]c2ccccc12)C(=O)N[C@@H](CC(C)C)C(=O)N[C@H](C(=O)N[C@@H](CCCCN)C(=O)NCC(=O)N[C@@H](CCCNC(=N)N)C(=O)NCC(=O)O)C(C)C (stereo partly drawn) [L2-GFA16-GLP-1],significantly prolonged,,
CC[C@H](C)[C@H](NC(=O)[C@H](CCC(=O)O)NC(=O)[C@H](CO)NC(=O)[C@@H](NC(=O)[C@@H](N)CO)C(C)C)C(=O)N[C@@H](CCC(N)=O)C(=O)N[C@@H](CC(C)C)C(=O)N[C@@H](CCSC)C(=O)N[C@@H](Cc1c[nH]cn1)C(=O)N[C@@H](CC(N)=O)C(=O)N[C@@H](CC(C)C)C(=O)NCC(=O)N[C@@H](CCCNC(=N)N)C(=O)N[C@@H](Cc1c[nH]cn1)C(=O)N[C@@H](CC(C)C)C(=O)N[C@@H](CC(N)=O)C(=O)N[C@@H](CO)C(=O)N[C@@H](CCSC)C(=O)N[C@@H](CCC(=O)O)C(=O)N[C@@H](CCCNC(=N)N)C(=O)N[C@H](C(=O)N[C@@H](CCC(=O)O)C(=O)N[C@@H](Cc1c[nH]c2ccccc12)C(=O)N[C@@H](CC(C)C)C(=O)N[C@@H](CCCNC(=N)N)C(=O)N[C@@H](CCCCNC(=O)OCCc1cn(CCOCCOCCNC(=O)CCC(NC(=O)CCCCCCCCCCCCCCC(=O)O)C(=O)O)nn1)C(=O)N[C@@H](CCCNC(=N)N)C(=O)N[C@@H](CC(C)C)C(=O)N[C@@H](CCC(N)=O)C(=O)N[C@@H](CC(=O)O)C(=O)N[C@H](C(=O)N[C@@H](Cc1c[nH]cn1)C(=O)N[C@@H](CC(N)=O)C(=O)N[C@@H](Cc1ccccc1)C(=O)O)C(C)C)C(C)C (stereo partly drawn) [L2-GFA16-PTH] (H-SVSEIQLMHNLGRHLNSMERVEWLRK(X4)RLQDVHNF-OH),,significantly prolonged,
CC[C@H](C)[C@H](NC(=O)[C@H](Cc1ccccc1)NC(=O)[C@H](CCC(=O)O)NC(=O)[C@H](CCCCNC(=O)OCCc1cn(CCOCCOCCOCCNC(=O)CCC(NC(=O)CCCCCCCCCCCCCCC(=O)O)C(=O)O)nn1)NC(=O)[C@H](C)NC(=O)[C@H](C)NC(=O)[C@H](CCC(N)=O)NC(=O)CNC(=O)[C@H](CCC(=O)O)NC(=O)[C@H](CC(C)C)NC(=O)[C@H](Cc1ccc(O)cc1)NC(=O)[C@H](CO)NC(=O)[C@H](CO)NC(=O)[C@@H](NC(=O)[C@H](CC(=O)O)NC(=O)[C@H](CO)NC(=O)[C@@H](NC(=O)[C@H](Cc1ccccc1)NC(=O)[C@@H](NC(=O)CNC(=O)[C@H](CCC(=O)O)NC(=O)[C@H](C)NC(=O)[C@@H](N)Cc1c[nH]cn1)[C@@H](C)O)[C@@H](C)O)C(C)C)C(=O)N[C@@H](C)C(=O)N[C@@H](Cc1c[nH]c2ccccc12)C(=O)N[C@@H](CC(C)C)C(=O)N[C@H](C(=O)N[C@@H](CCCCN)C(=O)NCC(=O)N[C@@H](CCCNC(=N)N)C(=O)NCC(=O)O)C(C)C (stereo partly drawn) [L3-GFA16-GLP-1],significantly prolonged,,
CC[C@H](C)[C@H](NC(=O)[C@H](CCC(=O)O)NC(=O)[C@H](CO)NC(=O)[C@@H](NC(=O)[C@@H](N)CO)C(C)C)C(=O)N[C@@H](CCC(N)=O)C(=O)N[C@@H](CC(C)C)C(=O)N[C@@H](CCSC)C(=O)N[C@@H](Cc1c[nH]cn1)C(=O)N[C@@H](CC(N)=O)C(=O)N[C@@H](CC(C)C)C(=O)NCC(=O)N[C@@H](CCCNC(=N)N)C(=O)N[C@@H](Cc1c[nH]cn1)C(=O)N[C@@H](CC(C)C)C(=O)N[C@@H](CC(N)=O)C(=O)N[C@@H](CO)C(=O)N[C@@H](CCSC)C(=O)N[C@@H](CCC(=O)O)C(=O)N[C@@H](CCCNC(=N)N)C(=O)N[C@H](C(=O)N[C@@H](CCC(=O)O)C(=O)N[C@@H](Cc1c[nH]c2ccccc12)C(=O)N[C@@H](CC(C)C)C(=O)N[C@@H](CCCNC(=N)N)C(=O)N[C@@H](CCCCNC(=O)OCCc1cn(CCOCCOCCOCCNC(=O)CCC(NC(=O)CCCCCCCCCCCCCCC(=O)O)C(=O)O)nn1)C(=O)N[C@@H](CCCNC(=N)N)C(=O)N[C@@H](CC(C)C)C(=O)N[C@@H](CCC(N)=O)C(=O)N[C@@H](CC(=O)O)C(=O)N[C@H](C(=O)N[C@@H](Cc1c[nH]cn1)C(=O)N[C@@H](CC(N)=O)C(=O)N[C@@H](Cc1ccccc1)C(=O)O)C(C)C)C(C)C (stereo partly drawn) [L3-GFA16-PTH] (H-SVSEIQLMHNLGRHLNSMERVEWLRK(X5)RLQDVHNF-OH),,significantly prolonged,
CC[C@H](C)[C@H](NC(=O)[C@H](Cc1ccccc1)NC(=O)[C@H](CCC(=O)O)NC(=O)[C@H](CCCCNC(=O)OCCc1cn(CCOCCOCCOCCOCCNC(=O)CCC(NC(=O)CCCCCCCCCCCCCCC(=O)O)C(=O)O)nn1)NC(=O)[C@H](C)NC(=O)[C@H](C)NC(=O)[C@H](CCC(N)=O)NC(=O)CNC(=O)[C@H](CCC(=O)O)NC(=O)[C@H](CC(C)C)NC(=O)[C@H](Cc1ccc(O)cc1)NC(=O)[C@H](CO)NC(=O)[C@H](CO)NC(=O)[C@@H](NC(=O)[C@H](CC(=O)O)NC(=O)[C@H](CO)NC(=O)[C@@H](NC(=O)[C@H](Cc1ccccc1)NC(=O)[C@@H](NC(=O)CNC(=O)[C@H](CCC(=O)O)NC(=O)[C@H](C)NC(=O)[C@@H](N)Cc1c[nH]cn1)[C@@H](C)O)[C@@H](C)O)C(C)C)C(=O)N[C@@H](C)C(=O)N[C@@H](Cc1c[nH]c2ccccc12)C(=O)N[C@@H](CC(C)C)C(=O)N[C@H](C(=O)N[C@@H](CCCCN)C(=O)NCC(=O)N[C@@H](CCCNC(=N)N)C(=O)NCC(=O)O)C(C)C (stereo partly drawn) [L4-GFA16-GLP-1],significantly prolonged,,
CC[C@H](C)[C@H](NC(=O)[C@H](Cc1ccccc1)NC(=O)[C@H](CCC(=O)O)NC(=O)[C@H](CCCCNC(=O)OCCc1cn(CCNC(=O)COCCOCCNC(=O)COCCOCCNC(=O)CCC(NC(=O)CCCCCCCCCCCCCCC(=O)O)C(=O)O)nn1)NC(=O)[C@H](C)NC(=O)[C@H](C)NC(=O)[C@H](CCC(N)=O)NC(=O)CNC(=O)[C@H](CCC(=O)O)NC(=O)[C@H](CC(C)C)NC(=O)[C@H](Cc1ccc(O)cc1)NC(=O)[C@H](CO)NC(=O)[C@H](CO)NC(=O)[C@@H](NC(=O)[C@H](CC(=O)O)NC(=O)[C@H](CO)NC(=O)[C@@H](NC(=O)[C@H](Cc1ccccc1)NC(=O)[C@@H](NC(=O)CNC(=O)[C@H](CCC(=O)O)NC(=O)[C@H](C)NC(=O)[C@@H](N)Cc1c[nH]cn1)[C@@H](C)O)[C@@H](C)O)C(C)C)C(=O)N[C@@H](C)C(=O)N[C@@H](Cc1c[nH]c2ccccc12)C(=O)N[C@@H](CC(C)C)C(=O)N[C@H](C(=O)N[C@@H](CCCCN)C(=O)NCC(=O)N[C@@H](CCCNC(=N)N)C(=O)NCC(=O)O)C(C)C (stereo partly drawn) [L6-GFA16-GLP-1],,,"Exposure time in vivo ([1]; s.c. 0.5 mg/kg, versus GLP-1): prolonged; exposure doses ([1]; s.c. 0.5 mg/kg, versus GLP-1): increased significantly"
